# Results reported in patent US20070253950A1 (Pfizer, published 2007).
# T1: murine RAGE-strep tag fusion protein (murine, UniProt Q62151 23-343)
# T1 construct: also called mRAGE-strep; mRAGE-SA
# T1 chain: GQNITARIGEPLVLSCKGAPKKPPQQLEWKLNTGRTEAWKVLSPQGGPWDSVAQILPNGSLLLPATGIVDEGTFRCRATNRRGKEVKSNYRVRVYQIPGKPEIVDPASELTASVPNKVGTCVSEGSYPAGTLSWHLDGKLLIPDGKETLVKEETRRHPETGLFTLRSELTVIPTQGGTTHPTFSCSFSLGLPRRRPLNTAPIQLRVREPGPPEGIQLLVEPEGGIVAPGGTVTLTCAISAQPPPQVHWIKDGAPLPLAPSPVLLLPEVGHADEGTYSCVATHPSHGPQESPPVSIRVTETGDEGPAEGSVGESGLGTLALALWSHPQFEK
# B1: chimeric XT-M4 (antibody, V domains shown)
# VH: EVQLVESGGGLVQPGRSLKLSCVVSGFTFNNYWMTWIRQTPGKGLEWVASINNSGDNTYYPDSVKDRFTISRDNAKSTLYLQMNSLRSEDTATYYCTRGGDITTGFDYWGQGVMVTVSS
# VL: DIQMTQSPSSMSVSLGDTITITCRASQDVGIYVNWFQQKPGKSPRRMIYRATNLADGVPSRFSGSRSGSIYSLTISSLESEDVADYHCLEFDEHPLTFGSGTKVEIK
# modifications: N-linked oligosaccharide at Asn52 (CDR2) on part of the heavy chains
# notes: rat XT-M4 variable regions fused to human kappa light chain and human IgG1 heavy chain constant regions; L234A and G237A in the human IgG1 Fc region; also called chimeric antibody XT-M4; XT-M4-A-1
# Experiments:
# [1] = biological target: T2, human RAGE-strep tag fusion protein (human, UniProt Q15109 23-344); test: BIACORE capture assay: hRAGE-SA over antibody captured on anti-human Fc; steady state affinity; average of FC2-FC4
# T2 construct: monomeric soluble human RAGE; also called hRAGE-SA; soluble human streptavidin-tagged RAGE
# Description: (§1) The assays were performed by coating anti-human Fc antibodies onto a CM5 BIA chip with 5000 RU (pH 5.0, 7 min.) in flow cells 1-4. Each antibody was captured by flowing at 2.0 μg/ml over the anti-Fc antibodies in flow cells 2-4 (flow cell 1 was used as a reference).
# [2] = biological target: T1, murine RAGE-strep tag fusion protein; test: BIACORE capture assay: mRAGE-SA (SA-Mu RAGE) over antibody captured on anti-human Fc; 1:1 Langmuir global fit; FC4
# Description: as §1
# [3] = biological target: T3, human RAGE-Fc fusion protein (human, UniProt Q15109 23-344); test: ligand competition ELISA, panel 'Blocks hRAGE-Fc interaction with HMGB1'; blocked ligand HMGB1
# T3 construct: amino acids 1-344 of human RAGE appended to the Fc domain of human IgG; also called hRAGE-Fc; huRAGE-Fc
# [4] = biological target: T1, murine RAGE-strep tag fusion protein; test: BIACORE capture assay: mRAGE-SA (SA-Mu RAGE) over antibody captured on anti-human Fc; 1:1 Langmuir global fit; FC3
# Description: as §1
# rhICAM-1-Fc = biological target: T4, rhICAM-1-Fc (human, UniProt P05362 28-480); test: direct binding ELISA, receptor coated 1 µg/ml, antibody 20 µg/ml
# T4 construct: also called rhlCAM-1-Fc
# Description: (§2) These receptors were chosen because they are cell-surface expressed, like RAGE, and their interaction with ligand is similarly dependent on charge. Tested receptors were rhVCAM-1, rhICAM-1-Fc, rhTLR4 (C-terminal His tag), rhNCAM-1, rhB7-H1-Fc mLox1-Fc, hLox1-Fc and hRAGE-Fc (as a positive control). ELISA plates were coated overnight with 1 μg/ml of the listed receptor proteins.
# [5] = biological target: T3, human RAGE-Fc fusion protein; test: as above
# Description: as §2
# [6] = biological target: T1, murine RAGE-strep tag fusion protein; test: BIACORE capture assay: mRAGE-SA (SA-Mu RAGE) over antibody captured on anti-human Fc; 1:1 Langmuir global fit; average of FC2-FC4
# Description: as §1
# [7] = biological target: T2, human RAGE-strep tag fusion protein; test: BIACORE, antibody coated on CM5 chip, hRAGE-SA in flow
# [8] = biological target: T2, human RAGE-strep tag fusion protein; test: BIACORE capture assay: hRAGE-SA over antibody captured on anti-human Fc; steady state affinity; FC2
# Description: as §1
# [9] = biological target: T3, human RAGE-Fc fusion protein; test: ligand competition ELISA, panel 'Blocks hRAGE-Fc interaction with S100-A'; blocked ligand S100-A
# [10] = biological target: T2, human RAGE-strep tag fusion protein; test: BIACORE, antibody coated on CM5 chip, hRAGE-SA in flow; remark: listed apart in the source
# Description: The assays were performed by coating antibodies onto a CM5 BIA chip with 5000-7000 RU.
# [11] = biological target: T2, human RAGE-strep tag fusion protein; test: BIACORE capture assay: hRAGE-SA over antibody captured on anti-human Fc; steady state affinity; FC4
# Description: as §1
# [12] = biological target: T2, human RAGE-strep tag fusion protein; test: BIACORE capture assay: hRAGE-SA over antibody captured on anti-human Fc; 1:1 Langmuir global fit; FC2
# Description: as §1
# [13] = biological target: T2, human RAGE-strep tag fusion protein; test: BIACORE capture assay: hRAGE-SA over antibody captured on anti-human Fc; 1:1 Langmuir global fit; average of FC2-FC4
# Description: as §1
# T4 sequence (P05362 28-480 limits assumed): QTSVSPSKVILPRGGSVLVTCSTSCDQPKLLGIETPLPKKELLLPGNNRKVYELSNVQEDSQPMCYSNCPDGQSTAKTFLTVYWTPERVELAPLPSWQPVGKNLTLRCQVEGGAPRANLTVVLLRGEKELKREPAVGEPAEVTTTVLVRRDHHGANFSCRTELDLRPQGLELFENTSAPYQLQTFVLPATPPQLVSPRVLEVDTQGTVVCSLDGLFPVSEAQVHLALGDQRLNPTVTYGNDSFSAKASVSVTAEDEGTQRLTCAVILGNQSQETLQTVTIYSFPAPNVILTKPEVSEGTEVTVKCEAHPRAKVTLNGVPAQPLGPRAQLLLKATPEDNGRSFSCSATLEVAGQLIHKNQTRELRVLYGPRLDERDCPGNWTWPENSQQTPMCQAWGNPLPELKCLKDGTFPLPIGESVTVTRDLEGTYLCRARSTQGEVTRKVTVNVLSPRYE
binder,measurement,setting,value
B1,Kd,[1],11 nM
same,Kd,[2],2 nM
same,koff,[2],0.0041 s⁻¹
same,kon,[2],2.1e+06 M⁻¹ s⁻¹
same,IC50 (read off the curve),[3],~0.1 µg/mL
same,Kd,[4],1.9 nM
same,koff,[4],0.0041 s⁻¹
same,kon,[4],2.1e+06 M⁻¹ s⁻¹
same,OD450,rhICAM-1-Fc,0.004
same,OD450,[5],3.8
same,Kd,[6],1.9 nM
same,koff,[6],0.0041 s⁻¹
same,kon,[6],2.1e+06 M⁻¹ s⁻¹
same,Kd,[7],~5.5 nM
same,Kd,[8],11 nM
same,IC50 (read off the curve),[9],~0.08 µg/mL
same,Ka,[10],1.77e+08 M⁻¹
same,Kd,[10],5.66 nM
same,koff,[10],0.0248 s⁻¹
same,kon,[10],4.39e+06 M⁻¹ s⁻¹
same,Kd,[11],11 nM
same,Kd,[12],8.2 nM
same,koff,[12],0.0281 s⁻¹
same,kon,[12],3.42e+06 M⁻¹ s⁻¹
same,Kd,[13],7.91 nM
same,koff,[13],0.0351 s⁻¹
same,kon,[13],4.41e+06 M⁻¹ s⁻¹
